{
  "source": "patent US20110117602A1",
  "key": {"[1]": {"molecular_target": "HLA-DR on M8166 cells (human)", "assay": "FACS analysis, PE-labeled L243 on M8166 cells"}, "[2]": {"molecular_target": "HLA-DR on Daudi cells (human)", "assay": "FACS analysis, PE-labeled L243 on Daudi cells"}},
  "data": [
    {"substance": "L243 mouse monoclonal antibody to HLA-DR α chain", "values": [
      {"measurement": "fluorescence as a fraction of that of S1T cells", "setting": "[1]", "value": 0.01},
      {"measurement": "fluorescence as a fraction of that of S1T cells", "setting": "[2]", "value": 0.1}
    ]}
  ]
}
